In assay [1] the target is AnxA2–HA (His6–AnxA2 fused to an HA tag, residues 1–339) (human, UniProt P07355 1-339). Nature of the assay: […].
Assay [2] deals with T1, NHERF2–VC (Na+/H+ exchanger regulatory factor 2, HA-tagged, fused to the C-terminal fragment of Venus), Q15599.
T1 chain: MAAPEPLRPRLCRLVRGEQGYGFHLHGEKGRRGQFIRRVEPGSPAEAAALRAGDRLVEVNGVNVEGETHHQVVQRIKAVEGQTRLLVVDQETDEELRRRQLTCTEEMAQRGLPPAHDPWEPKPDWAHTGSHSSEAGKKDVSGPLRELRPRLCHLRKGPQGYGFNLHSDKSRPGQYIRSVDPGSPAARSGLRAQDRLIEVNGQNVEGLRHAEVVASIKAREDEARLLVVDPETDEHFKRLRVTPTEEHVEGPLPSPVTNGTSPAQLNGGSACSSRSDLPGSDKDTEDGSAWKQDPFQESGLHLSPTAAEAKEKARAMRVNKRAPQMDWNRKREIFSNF
Nature of the assay: split reporter. The settings on record: remark: other sources report otherwise.

In assay [3] the target is T2, Tir-EPEC (residues 1–550), His6-tagged (enteropathogenic Escherichia coli (EPEC), UniProt B7UM99 1-550).
T2 sequence: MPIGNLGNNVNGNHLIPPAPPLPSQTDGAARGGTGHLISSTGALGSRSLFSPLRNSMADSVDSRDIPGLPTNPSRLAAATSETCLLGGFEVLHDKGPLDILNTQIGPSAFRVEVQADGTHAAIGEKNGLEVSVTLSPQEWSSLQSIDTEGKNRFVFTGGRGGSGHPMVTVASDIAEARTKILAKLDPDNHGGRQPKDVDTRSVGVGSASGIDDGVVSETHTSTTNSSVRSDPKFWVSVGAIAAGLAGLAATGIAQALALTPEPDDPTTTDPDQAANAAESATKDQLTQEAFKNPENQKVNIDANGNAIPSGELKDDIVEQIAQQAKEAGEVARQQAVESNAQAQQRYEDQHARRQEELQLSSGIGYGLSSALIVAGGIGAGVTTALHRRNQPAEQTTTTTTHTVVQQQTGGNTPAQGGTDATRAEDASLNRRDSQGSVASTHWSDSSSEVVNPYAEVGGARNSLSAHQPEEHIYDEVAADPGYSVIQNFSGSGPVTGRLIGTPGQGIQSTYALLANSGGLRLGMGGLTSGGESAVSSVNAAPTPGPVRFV
Nature of the assay: […].

Assay [4] has as its target T3, His6–Tir-EHEC (residues 1–558) (enterohaemorrhagic Escherichia coli …, UniProt Q7DB77 1-558).
T3 sequence: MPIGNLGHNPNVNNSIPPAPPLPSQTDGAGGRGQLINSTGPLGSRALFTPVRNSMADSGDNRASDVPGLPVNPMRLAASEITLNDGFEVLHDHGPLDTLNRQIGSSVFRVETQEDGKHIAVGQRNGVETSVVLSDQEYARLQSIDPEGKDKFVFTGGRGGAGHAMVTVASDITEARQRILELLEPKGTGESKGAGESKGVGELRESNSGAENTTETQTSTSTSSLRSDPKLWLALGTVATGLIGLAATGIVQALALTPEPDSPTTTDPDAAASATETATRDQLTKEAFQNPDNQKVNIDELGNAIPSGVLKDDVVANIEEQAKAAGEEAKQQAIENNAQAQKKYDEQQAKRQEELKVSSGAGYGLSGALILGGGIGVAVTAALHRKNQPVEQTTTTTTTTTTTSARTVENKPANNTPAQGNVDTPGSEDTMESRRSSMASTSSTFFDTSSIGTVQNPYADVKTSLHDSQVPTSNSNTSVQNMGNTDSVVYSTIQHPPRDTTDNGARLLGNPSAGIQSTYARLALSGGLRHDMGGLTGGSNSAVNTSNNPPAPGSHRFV
The assay is described as follows: […].

Chain of AnxA2–HA (His6–AnxA2 fused to an HA tag, residues 1–339) (P07355 whole entry, the tested form may be a part): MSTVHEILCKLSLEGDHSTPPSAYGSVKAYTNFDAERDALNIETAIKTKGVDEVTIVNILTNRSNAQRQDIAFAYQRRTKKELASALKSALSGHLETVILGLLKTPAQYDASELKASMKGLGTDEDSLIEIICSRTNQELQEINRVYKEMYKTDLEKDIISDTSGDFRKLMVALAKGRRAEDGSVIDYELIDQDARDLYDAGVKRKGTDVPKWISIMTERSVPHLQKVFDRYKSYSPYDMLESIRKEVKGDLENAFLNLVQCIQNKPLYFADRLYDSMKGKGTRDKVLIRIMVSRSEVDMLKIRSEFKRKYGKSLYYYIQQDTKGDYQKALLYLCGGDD

B1: TirN-EHEC (residues 1–237), His6-tagged (domain or fragment)
chain: MPIGNLGHNPNVNNSIPPAPPLPSQTDGAGGRGQLINSTGPLGSRALFTPVRNSMADSGDNRASDVPGLPVNPMRLAASEITLNDGFEVLHDHGPLDTLNRQIGSSVFRVETQEDGKHIAVGQRNGVETSVVLSDQEYARLQSIDPEGKDKFVFTGGRGGAGHAMVTVASDITEARQRILELLEPKGTGESKGAGESKGVGELRESNSGAENTTETQTSTSTSSLRSDPKLWLALGT
For the molecule B1, the binding result in assay [1] is reported as “binds”.

B2: NHERF2–VC (Na+/H+ exchanger regulatory factor 2, HA-tagged, fused to the C-terminal fragment of Venus), Q15599 1-337 (natural protein)
chain: MAAPEPLRPRLCRLVRGEQGYGFHLHGEKGRRGQFIRRVEPGSPAEAAALRAGDRLVEVNGVNVEGETHHQVVQRIKAVEGQTRLLVVDQETDEELRRRQLTCTEEMAQRGLPPAHDPWEPKPDWAHTGSHSSEAGKKDVSGPLRELRPRLCHLRKGPQGYGFNLHSDKSRPGQYIRSVDPGSPAARSGLRAQDRLIEVNGQNVEGLRHAEVVASIKAREDEARLLVVDPETDEHFKRLRVTPTEEHVEGPLPSPVTNGTSPAQLNGGSACSSRSDLPGSDKDTEDGSAWKQDPFQESGLHLSPTAAEAKEKARAMRVNKRAPQMDWNRKREIFSNF
Regarding B2, in assay [2], the BiFC signal, percent of Venus fluorescence (% of Venus fluorescence) worked out at 75.

B3: TirC-EPEC (residues 369–550), His6-tagged (domain or fragment)
chain: SSALIVAGGIGAGVTTALHRRNQPAEQTTTTTTHTVVQQQTGGNTPAQGGTDATRAEDASLNRRDSQGSVASTHWSDSSSEVVNPYAEVGGARNSLSAHQPEEHIYDEVAADPGYSVIQNFSGSGPVTGRLIGTPGQGIQSTYALLANSGGLRLGMGGLTSGGESAVSSVNAAPTPGPVRFV
Regarding B3, in assay [1], the binding result is reported as “binds”.

B4: TirC-EHEC (residues 366–558), His6-tagged (domain or fragment)
chain: SGALILGGGIGVAVTAALHRKNQPVEQTTTTTTTTTTTSARTVENKPANNTPAQGNVDTPGSEDTMESRRSSMASTSSTFFDTSSIGTVQNPYADVKTSLHDSQVPTSNSNTSVQNMGNTDSVVYSTIQHPPRDTTDNGARLLGNPSAGIQSTYARLALSGGLRHDMGGLTGGSNSAVNTSNNPPAPGSHRFV
B4: in assay [1], the binding result was “binds”.

B5: AnxA2-C (C-terminal region of AnxA2, amino acids 191–339), His6-tagged (domain or fragment)
chain: IDQDARDLYDAGVKRKGTDVPKWISIMTERSVPHLQKVFDRYKSYSPYDMLESIRKEVKGDLENAFLNLVQCIQNKPLYFADRLYDSMKGKGTRDKVLIRIMVSRSEVDMLKIRSEFKRKYGKSLYYYIQQDTKGDYQKALLYLCGGDD
With B5, the binding result in assay [3] and in assay [4] was “binds” each time.

B6: TirN-EPEC (residues 1–240), His6-tagged (domain or fragment)
chain: MPIGNLGNNVNGNHLIPPAPPLPSQTDGAARGGTGHLISSTGALGSRSLFSPLRNSMADSVDSRDIPGLPTNPSRLAAATSETCLLGGFEVLHDKGPLDILNTQIGPSAFRVEVQADGTHAAIGEKNGLEVSVTLSPQEWSSLQSIDTEGKNRFVFTGGRGGSGHPMVTVASDIAEARTKILAKLDPDNHGGRQPKDVDTRSVGVGSASGIDDGVVSETHTSTTNSSVRSDPKFWVSVGA
B6: the binding result in assay [1] is “binds”.

(Values after publication PMC4568301 (The Biochemical journal, 2012).)
